The source of these data is patent US20230235013A1 (MABSOLVE, published 2023).

The target of experiment [1] is T1, human FcRn (R&D Systems Cat. No. 8639-Fc) (human, UniProt P55899 24-297; P61769 21-119). Nature of the experiment: SPR, FcRn captured; Expt 2. A general note: In SPR one partner is held on a chip, and binding of the other changes the refractive index at the surface.
Experiment [2] deals with T2, C-terminus biotinylated human FcRn attached to Streptavidin-SmBiT (FcRn-SAv-SmBiT) (human, UniProt P55899 24-297; P61769 21-119, limits assumed, C-terminus biotinylated (AviTag), attached to Streptavidin-SmBiT).
T2 construct: Kit reagent; also called hFcRn-AviTag
Briefly: NanoBiT FcRn competition immunoassay, competitor Tracer-LgBiT human IgG, pH 6.0.

Experiment [3] concerns the target T1, human FcRn (R&D Systems Cat. No. …). Briefly: SPR, FcRn captured; Expt 1.
The target is the same in experiment [4]. Briefly: SPR, FcRn captured; Mean.
Experiment [5] shares this target. Briefly: SPR, FcRn captured; Expt 3.
Experiment [6] concerns the target T3, Human C1q (Sigma Cat. No. 20476), HRP-labelled (human, UniProt P02745 23-245; P02746 28-253; P02747 29-245).
T3 construct: Coupled to horse-radish peroxidase with Lightning-Link kit; also called HRP-labelled C1q
Nature of the experiment: ELISA, antibody coated, HRP-C1q; Expt 3, buffer alone 0.102. Background: An ELISA detects its analyte on a solid surface through an enzyme-linked reagent.

Experiment [7] concerns the target T3, Human C1q (Sigma Cat. No. 20476), …. Nature of the experiment: ELISA, antibody coated, HRP-C1q; Expt 2, buffer alone 0.091.
Experiment [8] shares this target. Briefly: ELISA, antibody coated, HRP-C1q; Expt 1, buffer alone 0.061.
Experiment [9] addresses T4, mouse FcRn (Sino Biological Cat. No. CT029-M08H) (mouse, UniProt Q61559 22-297; P01887 21-119).
T4 construct: Bought protein, captured on an anti-histidine chip
T4 sequence (looked up): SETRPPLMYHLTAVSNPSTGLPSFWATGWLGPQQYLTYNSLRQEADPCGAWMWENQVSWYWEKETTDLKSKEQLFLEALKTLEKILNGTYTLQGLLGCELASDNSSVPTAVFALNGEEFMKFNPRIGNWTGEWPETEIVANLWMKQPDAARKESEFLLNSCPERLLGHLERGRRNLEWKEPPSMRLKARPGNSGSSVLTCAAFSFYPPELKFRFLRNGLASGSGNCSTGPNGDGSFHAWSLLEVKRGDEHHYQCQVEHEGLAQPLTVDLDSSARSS
T4 sequence (b2m, looked up): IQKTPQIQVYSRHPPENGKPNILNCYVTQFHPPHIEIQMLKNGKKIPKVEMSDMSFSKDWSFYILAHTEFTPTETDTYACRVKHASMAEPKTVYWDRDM
Nature of the experiment: SPR, FcRn captured via anti-His, pH 6.0.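 Note: SPR binding signal relative to the reference cell, corrected by subtracting the response of a blank sample of running buffer alone.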

Experiment [10] deals with T1, human FcRn (R&D Systems Cat. No. …). Nature of the experiment: SPR, FcRn captured via anti-His, pH 6.0.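 Note: SPR binding signal relative to the reference cell, corrected by subtracting the response of a blank sample of running buffer alone.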
Experiment [11] addresses T5, cynomolgus monkey FcRn (Sino Biological Cat. No. CT031-C08H) (cynomolgus monkey, UniProt Q8SPV9 24-297; Q8SPW0 21-119).
T5 construct: Bought protein, captured on an anti-histidine chip; also called cynomolgus FcRn
Briefly: SPR, FcRn captured via anti-His, pH 6.0.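 Note: SPR binding signal relative to the reference cell, corrected by subtracting the response of a blank sample of running buffer alone.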

B1: anti-CD20 (rituximab) human IgG1 L234A/L235A/P329G (LALAPG reference) (antibody)
heavy: not shown
light: QIVLSQSPAILSASPGEKVTMTCRASSSVSYIHWFQQKPGSSPKPWIYATSNLASGVPVRFSGSGSGTSYSLTISRVEAEDAATYYCQQWTSNPPTFGGGTKLEIKRTVAAPSVFIFPPSDEQLKSGTASVVCLLNNFYPREAKVQWKVDNALQSGNSQESVTEQDSKDSTYSLSSTLTLSKADYEKHKVYACEVTHQGLSSPVTKSFNRGEC
notes: EU numbering; also called 2-66; copies: 2 + 2
Consider B1, for which the “Corrected and normalised response (% of wild-type reference)” value in [1] is 96.4 % of wild-type reference; in [3], 95.1 % of wild-type reference; in experiment [4] it was 95.1 % of wild-type reference; in experiment [5] it was 93.6 % of wild-type reference. Besides, the “Mean binding activity (% of wild-type reference)” value in [2] was 96.7 % of wild-type reference. Moreover, the “Mean Absorbance” value is 0.103 absorbance (450 nm) in experiment [6] and 0.08 absorbance (450 nm) in [7].

B2: anti-CD20 (rituximab) human IgG1 L234S/L235T/G236R (antibody)
heavy: QVQLQQPGAELVKPGASVKMSCKASGYTFTSYNMHWVKQTPGRGLEWIGAIYPGNGDTSYNQKFKGKATLTADKSSSTAYMQLSSLTSEDSAVYYCARSTYYGGDWYFNVWGAGTTVTVSSASTKGPSVFPLAPSSKSTSGGTAALGCLVKDYFPEPVTVSWNSGALTSGVHTFPAVLQSSGLYSLSSVVTVPSSSLGTQTYICNVNHKPSNTKVDKKVEPKSCDKTHTCPPCPAPESTRGPSVFLFPPKPKDTLMISRTPEVTCVVVDVSHEDPEVKFNWYVDGVEVHNAKTKPREEQYNSTYRVVSVLTVLHQDWLNGKEYKCKVSNKALPAPIEKTISKAKGQPREPQVYTLPPSRDELTKNQVSLTCLVKGFYPSDIAVEWESNGQPENNYKTTPPVLDSDGSFFLYSKLTVDKSRWQQGNVFSCSVMHEALHNHYTQKSLSLSPGK
light: QIVLSQSPAILSASPGEKVTMTCRASSSVSYIHWFQQKPGSSPKPWIYATSNLASGVPVRFSGSGSGTSYSLTISRVEAEDAATYYCQQWTSNPPTFGGGTKLEIKRTVAAPSVFIFPPSDEQLKSGTASVVCLLNNFYPREAKVQWKVDNALQSGNSQESVTEQDSKDSTYSLSSTLTLSKADYEKHKVYACEVTHQGLSSPVTKSFNRGEC
notes: EU numbering; also called 2-52; 1-150; copies: 2 + 2
B2: the “Corrected and normalised response (% of wild-type reference)” value was 97.9 % of wild-type reference in experiment [1], 98.3 % of wild-type reference in [3], 96.6 % of wild-type reference in experiment [4] and 93.7 % of wild-type reference in [5]. Also, the “Mean binding activity (% of wild-type reference)” value in experiment [2] is 98.6 % of wild-type reference. The “Mean Absorbance” value is 0.083 absorbance (450 nm) in experiment [6], 0.047 absorbance (450 nm) in experiment [8] and 0.079 absorbance (450 nm) in [7].

B3: anti-CD20 (rituximab) human IgG1 L234Q/L235S/G236R (antibody)
heavy: QVQLQQPGAELVKPGASVKMSCKASGYTFTSYNMHWVKQTPGRGLEWIGAIYPGNGDTSYNQKFKGKATLTADKSSSTAYMQLSSLTSEDSAVYYCARSTYYGGDWYFNVWGAGTTVTVSSASTKGPSVFPLAPSSKSTSGGTAALGCLVKDYFPEPVTVSWNSGALTSGVHTFPAVLQSSGLYSLSSVVTVPSSSLGTQTYICNVNHKPSNTKVDKKVEPKSCDKTHTCPPCPAPEQSRGPSVFLFPPKPKDTLMISRTPEVTCVVVDVSHEDPEVKFNWYVDGVEVHNAKTKPREEQYNSTYRVVSVLTVLHQDWLNGKEYKCKVSNKALPAPIEKTISKAKGQPREPQVYTLPPSRDELTKNQVSLTCLVKGFYPSDIAVEWESNGQPENNYKTTPPVLDSDGSFFLYSKLTVDKSRWQQGNVFSCSVMHEALHNHYTQKSLSLSPGK
light: QIVLSQSPAILSASPGEKVTMTCRASSSVSYIHWFQQKPGSSPKPWIYATSNLASGVPVRFSGSGSGTSYSLTISRVEAEDAATYYCQQWTSNPPTFGGGTKLEIKRTVAAPSVFIFPPSDEQLKSGTASVVCLLNNFYPREAKVQWKVDNALQSGNSQESVTEQDSKDSTYSLSSTLTLSKADYEKHKVYACEVTHQGLSSPVTKSFNRGEC
notes: EU numbering; also called 2-33; 10.77; copies: 2 + 2
As to B3, the “Corrected and normalised response (% of wild-type reference)” value in experiment [1] was 97.8 % of wild-type reference; in experiment [3] it was 98.4 % of wild-type reference; in [4] it was 98.1 % of wild-type reference; in [5] it was 98.2 % of wild-type reference. In addition, the “Corrected response (RU)” value in experiment [9] is 166 RU; in experiment [10] it was 535 RU; in [11], 1230 RU. The “Mean Absorbance” value in experiment [6] is 0.083 absorbance (450 nm); in [8], 0.026 absorbance (450 nm); in [7], 0.084 absorbance (450 nm).

B4: anti-CD20 (rituximab) human IgG1 L234G/L235S/G236R (antibody)
heavy: QVQLQQPGAELVKPGASVKMSCKASGYTFTSYNMHWVKQTPGRGLEWIGAIYPGNGDTSYNQKFKGKATLTADKSSSTAYMQLSSLTSEDSAVYYCARSTYYGGDWYFNVWGAGTTVTVSSASTKGPSVFPLAPSSKSTSGGTAALGCLVKDYFPEPVTVSWNSGALTSGVHTFPAVLQSSGLYSLSSVVTVPSSSLGTQTYICNVNHKPSNTKVDKKVEPKSCDKTHTCPPCPAPEGSRGPSVFLFPPKPKDTLMISRTPEVTCVVVDVSHEDPEVKFNWYVDGVEVHNAKTKPREEQYNSTYRVVSVLTVLHQDWLNGKEYKCKVSNKALPAPIEKTISKAKGQPREPQVYTLPPSRDELTKNQVSLTCLVKGFYPSDIAVEWESNGQPENNYKTTPPVLDSDGSFFLYSKLTVDKSRWQQGNVFSCSVMHEALHNHYTQKSLSLSPGK
light: QIVLSQSPAILSASPGEKVTMTCRASSSVSYIHWFQQKPGSSPKPWIYATSNLASGVPVRFSGSGSGTSYSLTISRVEAEDAATYYCQQWTSNPPTFGGGTKLEIKRTVAAPSVFIFPPSDEQLKSGTASVVCLLNNFYPREAKVQWKVDNALQSGNSQESVTEQDSKDSTYSLSSTLTLSKADYEKHKVYACEVTHQGLSSPVTKSFNRGEC
notes: EU numbering; also called 2-19; 1-59; copies: 2 + 2
As to B4, the “Corrected and normalised response (% of wild-type reference)” value is 96 % of wild-type reference in [1], 97.1 % of wild-type reference in experiment [3], 96.3 % of wild-type reference in experiment [4] and 95.7 % of wild-type reference in experiment [5]. Besides, the “Mean binding activity (% of wild-type reference)” value in experiment [2] is 77.8 % of wild-type reference. In addition, the “Mean Absorbance” value in experiment [6] is 0.064 absorbance (450 nm); in [8], 0.052 absorbance (450 nm); in experiment [7], 0.091 absorbance (450 nm).

B5: anti-CD20 (rituximab) human IgG1 L234A/L235S/G236R (antibody)
heavy: not shown
light: QIVLSQSPAILSASPGEKVTMTCRASSSVSYIHWFQQKPGSSPKPWIYATSNLASGVPVRFSGSGSGTSYSLTISRVEAEDAATYYCQQWTSNPPTFGGGTKLEIKRTVAAPSVFIFPPSDEQLKSGTASVVCLLNNFYPREAKVQWKVDNALQSGNSQESVTEQDSKDSTYSLSSTLTLSKADYEKHKVYACEVTHQGLSSPVTKSFNRGEC
notes: EU numbering; also called 2-4; 1-14; copies: 2 + 2
B5: the “Corrected and normalised response (% of wild-type reference)” value in experiment [1] is 95.7 % of wild-type reference; in experiment [3], 96.5 % of wild-type reference; in experiment [4], 96 % of wild-type reference; in experiment [5] it was 95.8 % of wild-type reference. The “Corrected response (RU)” value in [9] worked out at 146 RU; in experiment [10] it was 539 RU; in experiment [11], 1260 RU. The “Mean Absorbance” value was 0.095 absorbance (450 nm) in experiment [6], 0.041 absorbance (450 nm) in experiment [8] and 0.1 absorbance (450 nm) in [7].
